Patent US20170037110A1 (IMMATICS BIOTECHNOLOGIES, published 2017)

Each binder was assayed against T1, HLA-A*02:01 (human) (assay: UV peptide exchange ELISA).
T1 construct: monomers captured on streptavidin plates; also called MHC class I
Description: Candidate peptides for T cell based therapies according to the present invention were further tested for their MHC binding capacity (affinity). The individual peptide-MHC complexes were produced by UV-ligand exchange, where a UV-sensitive peptide is cleaved upon UV-irradiation, and exchanged with the peptide of interest as analyzed. Only peptide candidates that can effectively bind and stabilize the peptide-receptive MHC molecules prevent dissociation of the MHC complexes. To determine the yield of the exchange reaction, an ELISA was performed based on the detection of the light chain (p2m) of stabilized MHC complexes.
96 well MAXISorp plates (NUNC) were coated over night with 2 μg/ml streptavidin in PBS at room temperature, washed 4× and blocked for 1 h at 37° C. in 2% BSA containing blocking buffer. […] Peptide-MHC monomers of the UV-exchange reaction were diluted 100 fold in blocking buffer. Samples were incubated for 1h at 37° C., washed four times, incubated with 2 μg/ml HRP conjugated anti-p2m for 1h at 37° C., washed again and detected with TMB solution that is stopped with […]. Absorption was measured at 450 nm.

| Binder | peptide exchange yield [%] |
| --- | --- |
| ALTEIAFVV | ≥ 75 |
| RLQETLSAA | 50 to 75 |
| SLLDEIRAV | 50 to 75 |
| FLATFPLAAV | ≥ 75 |
| GLFADLLPRL | 50 to 75 |
| SLWPDPMEV | 50 to 75 |
| KVLEVTEEFGV | 50 to 75 |
| ALGPEGGRV | 20 to 50 |
| ALPLFVITV | 50 to 75 |
| ALLPQPKNLTV | 50 to 75 |
| KILDADIQL | ≥ 75 |
| LLDSASAGLYL | 50 to 75 |
| NLPEYLPFV | 50 to 75 |
| FQIDPHSGLVTV | 20 to 50 |
| RLVDYLEGI | 50 to 75 |
| MLLEAPGIFL | 50 to 75 |
| ALDEMGDLLQL | 50 to 75 |
| YQQAQVPSV | 50 to 75 |
| YLFENISQL | 50 to 75 |
| FLSSLTETI | 50 to 75 |
| KTINKVPTV | 50 to 75 |
| KIAENVEEV | 20 to 50 |
| ALLEGVNTV | 50 to 75 |
| FLIDDKGYTL | 20 to 50 |
| TLFFQQNAL | 20 to 50 |
| ALLDQQGSRWTL | 50 to 75 |
| YLYSVEIKL | ≥ 75 |

| Binder | peptide exchange yield [%] |
| --- | --- |
| YLNHLEPPV | 50 to 75 |
| YLMDINGKMWL | 50 to 75 |
| FLFDEEIEQI | 50 to 75 |
| KIFEMLEGV | 50 to 75 |
| LLFGSVQEV | 50 to 75 |
| KVLNELYTV | 50 to 75 |
| GAAKDLPGV | 20 to 50 |
| YLMEGSYNKVFL | 20 to 50 |
| KLFDVDEDGYI | 50 to 75 |
| VLYSYTIITV | 20 to 50 |
| ALQDVPLSSV | 50 to 75 |
| YLLPEEYTSTL | ≥ 75 |
| RQISIRGIVGV | 50 to 75 |
| GLVGNPLPSV | ≥ 75 |
| GLFPVTPEAV | 50 to 75 |
| LLQEGQALEYV | 20 to 50 |
| FGLDLVTEL | 50 to 75 |
| KMLDGASFTL | 50 to 75 |
| VLQEGKLQKLAQL | 50 to 75 |
| GLTSTNAEV | 20 to 50 |
| LLLPLQILL | 50 to 75 |
| QLLDADGFLNV | 50 to 75 |
| FTLGNVVGMYL | ≥ 75 |
| LLWAGTAFQV | 50 to 75 |
| ALQRKLPYV | 50 to 75 |
| ALAQYLITA | 50 to 75 |
| SLYPGTETMGL | 50 to 75 |
